Measurements taken from PMC7419741.

Columns and labels:
IFNγ (Homo sapiens) [1] = molecular target: IFNγ (Homo sapiens) (UniProt P01579); test: SPR; conditions: cited from earlier work
IFNγ (Homo sapiens) [2] = molecular target: IFNγ (Homo sapiens) (UniProt P01579); test: cell-based assay; conditions: cited from earlier work
CCR9^QTY–Fc = CCR9^QTY–Fc (UniProt P51686); test: MST; 5 nM NT647-labelled receptor-Fc against a gradient of ligand; 1x PBS, 10 mM DTT, arginine at different concentrations; Monolith NT.115 pico, 25°C; data from the early T-Jump period; Kd model (law of mass action)
IL8 (Homo sapiens) = IL8 (Homo sapiens) (UniProt P10145); conditions: cited from earlier work
[3] = molecular target: IL8 (dimer) (Homo sapiens) (UniProt P10145); test: cell-based assay; conditions: cited from earlier work
[4] = molecular target: IL8 (monomer) (Homo sapiens) (UniProt P10145); test: cell-based assay; conditions: cited from earlier work
CCL25 (Homo sapiens) = CCL25 (Homo sapiens) (UniProt O15444); conditions: cited from earlier work
IFNγR1^QTY–Fc = test: MST; 5 nM NT647-labelled receptor-Fc against a gradient of ligand; 1x PBS, 10 mM DTT, arginine at different concentrations; Monolith NT.115 pico, 25°C; data from the early T-Jump period; Kd model (law of mass action)
IL10Rα^QTY–Fc = test: as above
IL4 (Homo sapiens) = IL4 (Homo sapiens) (UniProt P05112); test: SPR; conditions: cited from earlier work
IFNλR1^QTY–Fc = test: MST; 5 nM NT647-labelled receptor-Fc against a gradient of ligand; 1x PBS, 10 mM DTT, arginine at different concentrations; Monolith NT.115 pico, 25°C; data from the early T-Jump period; Kd model (law of mass action)

Sequence of CXCR2 (P25025 whole entry): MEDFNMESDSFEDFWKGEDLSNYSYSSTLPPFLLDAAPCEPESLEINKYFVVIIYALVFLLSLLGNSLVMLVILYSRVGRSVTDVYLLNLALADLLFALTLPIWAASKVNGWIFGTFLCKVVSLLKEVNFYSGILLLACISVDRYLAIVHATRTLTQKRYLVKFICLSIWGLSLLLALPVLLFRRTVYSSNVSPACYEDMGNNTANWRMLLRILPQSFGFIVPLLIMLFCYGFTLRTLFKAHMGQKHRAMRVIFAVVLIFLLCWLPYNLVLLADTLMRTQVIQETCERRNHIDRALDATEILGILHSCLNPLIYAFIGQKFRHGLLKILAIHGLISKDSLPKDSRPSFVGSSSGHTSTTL
Sequence of IFNγR1 (P15260 18-245): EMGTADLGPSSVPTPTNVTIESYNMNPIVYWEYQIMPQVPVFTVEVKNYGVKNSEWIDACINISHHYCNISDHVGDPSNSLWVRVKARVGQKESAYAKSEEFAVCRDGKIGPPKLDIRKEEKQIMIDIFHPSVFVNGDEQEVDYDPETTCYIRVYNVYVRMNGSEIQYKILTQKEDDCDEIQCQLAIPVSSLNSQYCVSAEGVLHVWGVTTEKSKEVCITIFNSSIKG
Sequence of IFNγ (Homo sapiens) (P01579 24-161): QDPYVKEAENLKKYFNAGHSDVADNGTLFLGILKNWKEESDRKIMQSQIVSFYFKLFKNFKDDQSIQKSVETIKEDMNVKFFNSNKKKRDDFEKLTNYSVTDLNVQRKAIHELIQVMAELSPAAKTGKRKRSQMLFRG
Sequence of IL4Rα (P24394 26-232): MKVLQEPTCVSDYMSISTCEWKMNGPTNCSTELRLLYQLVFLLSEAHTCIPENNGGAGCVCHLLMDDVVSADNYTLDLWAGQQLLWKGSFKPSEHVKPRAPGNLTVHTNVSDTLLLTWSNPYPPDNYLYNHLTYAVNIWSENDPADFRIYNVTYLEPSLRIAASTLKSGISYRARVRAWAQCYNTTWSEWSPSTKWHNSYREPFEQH
Sequence of IL29 (Q8IU54 20-200): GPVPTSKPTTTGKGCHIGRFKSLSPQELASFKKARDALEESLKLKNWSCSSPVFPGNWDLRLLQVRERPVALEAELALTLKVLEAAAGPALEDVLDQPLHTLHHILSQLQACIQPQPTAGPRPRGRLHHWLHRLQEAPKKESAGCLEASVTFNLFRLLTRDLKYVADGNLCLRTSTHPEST
Sequence of IL4 (Homo sapiens) (P05112 25-153): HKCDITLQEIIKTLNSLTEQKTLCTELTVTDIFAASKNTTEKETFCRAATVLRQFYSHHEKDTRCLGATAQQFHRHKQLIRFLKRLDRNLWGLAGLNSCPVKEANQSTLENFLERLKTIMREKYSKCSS
Sequence of IFNγ (P01579 24-161): as the sequence (P01579 24-161) above
Sequence of CCL25 (O15444 24-150): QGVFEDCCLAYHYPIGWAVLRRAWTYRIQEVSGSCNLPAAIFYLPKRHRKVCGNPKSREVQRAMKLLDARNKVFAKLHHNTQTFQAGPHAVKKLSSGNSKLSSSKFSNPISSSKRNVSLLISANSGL
Sequence of CCL25 (Homo sapiens) (O15444 24-150): as above
Sequence of IL10 (P22301 19-178): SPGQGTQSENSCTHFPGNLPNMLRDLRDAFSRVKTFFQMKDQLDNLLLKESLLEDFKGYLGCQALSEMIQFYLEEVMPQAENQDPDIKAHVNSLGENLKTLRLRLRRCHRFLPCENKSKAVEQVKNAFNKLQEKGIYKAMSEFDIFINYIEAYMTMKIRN
Sequence of IL8 (monomer) (Homo sapiens) (P10145 28-99): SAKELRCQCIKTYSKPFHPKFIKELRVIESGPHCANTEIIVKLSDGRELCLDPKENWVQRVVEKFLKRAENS
Sequence of IL8 (Homo sapiens) (P10145 28-99): as above
Sequence of IL8 (dimer) (Homo sapiens) (P10145 28-99): as above

IFNγR1 (from UniProt P15260)
Kd (IFNγ (Homo sapiens) [1]): 30.8 nM
Kd (IFNγ (Homo sapiens) [2]): 1.7 nM

CCL25 (from UniProt O15444 24-150) (ligand)
Kd (CCR9^QTY–Fc): 37.2 nM

CXCR2 (from UniProt P25025)
Kd (IL8 (Homo sapiens)): 70 nM
Kd [3]: 8.5 nM
Kd [4]: 0.5 nM

CCR9 (from UniProt P51686)
Kd (CCL25 (Homo sapiens)): 8 nM

IFNγ (from UniProt P01579 24-161) (ligand)
Kd (IFNγR1^QTY–Fc): 6.2 nM

IL10 (from UniProt P22301 19-178) (ligand)
Kd (IL10Rα^QTY–Fc): 1.6 nM

IL4Rα (from UniProt P24394)
Kd (IL4 (Homo sapiens)): 1 nM

IL29 (from UniProt Q8IU54 20-200) (ligand)
Kd (IFNλR1^QTY–Fc): 11.5 nM
